The results in this text go back to patent US20120172293A1 (Takeda / Millennium, published 2012).

Non-standard residues stand in square brackets, D forms with d. *: point of attachment. Lys(Me2) = CN(C)CCCC[C@H](N)C(=O)O; tBuAla = CC(C)(C)C[C@H](N)C(=O)O; 4Pal = N[C@@H](Cc1ccncc1)C(=O)O; Cha = N[C@@H](CC1CCCCC1)C(=O)O; Cit = NC(=O)NCCC[C@H](N)C(=O)O; d(αMeP) = C[C@]1(C(=O)O)CCCN1; αMeP = C[C@@]1(C(=O)O)CCCN1; Isobutyryl = CC(C)C(=O)*; Orn = NCCC[C@H](N)C(=O)O; Dab = NCC[C@H](N)C(=O)O; dAze = O=C(O)[C@H]1CCN1; Aib = CC(C)(N)C(=O)O; GABA = NCCCC(=O)O

For assay [1], the target named is human Y2 receptor (human) (UniProt P49146). In words: RBA: [125I]-PYY displacement, hY2R/CHO membranes.
For assay [2] the target is unchanged. In words: cell-based or functional assay.

human Y2 receptor (human), sequence (P49146 whole entry): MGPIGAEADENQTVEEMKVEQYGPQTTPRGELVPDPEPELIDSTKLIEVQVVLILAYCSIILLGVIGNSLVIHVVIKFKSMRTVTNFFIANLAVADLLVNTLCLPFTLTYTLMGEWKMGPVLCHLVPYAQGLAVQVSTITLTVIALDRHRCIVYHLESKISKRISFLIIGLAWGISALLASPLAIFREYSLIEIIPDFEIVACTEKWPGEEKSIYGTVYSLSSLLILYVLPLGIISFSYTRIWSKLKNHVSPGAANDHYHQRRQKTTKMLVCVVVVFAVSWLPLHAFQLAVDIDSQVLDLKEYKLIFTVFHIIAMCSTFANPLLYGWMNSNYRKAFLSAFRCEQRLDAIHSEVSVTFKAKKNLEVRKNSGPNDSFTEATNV

B1: Ac-[αMePro24, Cha27,28,36, Aib31]-PYY(23-36) (peptide)
peptide: Ac-S[αMeP]RH[Cha][Cha]NL[Aib]TRQR[Cha]-NH2
SMILES: CC(=O)N[C@@H](CO)C(=O)N1CCC[C@@]1(C)C(=O)N[C@@H](CCCNC(=N)N)C(=O)N[C@@H](Cc1c[nH]cn1)C(=O)N[C@@H](CC1CCCCC1)C(=O)N[C@@H](CC1CCCCC1)C(=O)N[C@@H](CC(N)=O)C(=O)N[C@@H](CC(C)C)C(=O)NC(C)(C)C(=O)N[C@H](C(=O)N[C@@H](CCCNC(=N)N)C(=O)N[C@@H](CCC(N)=O)C(=O)N[C@@H](CCCNC(=N)N)C(=O)N[C@@H](CC1CCCCC1)C(N)=O)[C@@H](C)O
In the case of B1, the IC50 Ratio (vs PYY(3-36)) in assay [1] was determined as 2.8. The GBA EC50 Ratio (vs PYY(3-36)), [35S]GTPγS in assay [2] is 1.3.

B2: Ac-[D-Pro24, Cha27,28,36, Dab30, Aib31]-PYY(23-36) (peptide)
peptide: Ac-S[dP]RH[Cha][Cha]N[Dab][Aib]TRQR[Cha]-NH2
SMILES: CC(=O)N[C@@H](CO)C(=O)N1CCC[C@@H]1C(=O)N[C@@H](CCCNC(=N)N)C(=O)N[C@@H](Cc1c[nH]cn1)C(=O)N[C@@H](CC1CCCCC1)C(=O)N[C@@H](CC1CCCCC1)C(=O)N[C@@H](CC(N)=O)C(=O)N[C@@H](CCN)C(=O)NC(C)(C)C(=O)N[C@H](C(=O)N[C@@H](CCCNC(=N)N)C(=O)N[C@@H](CCC(N)=O)C(=O)N[C@@H](CCCNC(=N)N)C(=O)N[C@@H](CC1CCCCC1)C(N)=O)[C@@H](C)O
Turning to B2, in assay [1], the IC50 Ratio (vs PYY(3-36)) was found to be 2.6. Also, in assay [2], the GBA EC50 Ratio (vs PYY(3-36)), [35S]GTPγS came out at 1.6.

B3: Ac-[D-Pro24, Orn26, Cha27,28,36, Aib31]-PYY(23-36) (peptide)
peptide: Ac-S[dP]R[Orn][Cha][Cha]NL[Aib]TRQR[Cha]-NH2
SMILES: CC(=O)N[C@@H](CO)C(=O)N1CCC[C@@H]1C(=O)N[C@@H](CCCNC(=N)N)C(=O)N[C@@H](CCCN)C(=O)N[C@@H](CC1CCCCC1)C(=O)N[C@@H](CC1CCCCC1)C(=O)N[C@@H](CC(N)=O)C(=O)N[C@@H](CC(C)C)C(=O)NC(C)(C)C(=O)N[C@H](C(=O)N[C@@H](CCCNC(=N)N)C(=O)N[C@@H](CCC(N)=O)C(=O)N[C@@H](CCCNC(=N)N)C(=O)N[C@@H](CC1CCCCC1)C(N)=O)[C@@H](C)O
In the case of B3, in assay [1], the IC50 Ratio (vs PYY(3-36)) came to 4.2. Besides, the GBA EC50 Ratio (vs PYY(3-36)), [35S]GTPγS in assay [2] was determined as 2.2.

B4: Ac-[D-Pro24, Cit26, Cha27,28,36, Aib31]-PYY(23-36) (peptide)
peptide: Ac-S[dP]R[Cit][Cha][Cha]NL[Aib]TRQR[Cha]-NH2
SMILES: CC(=O)N[C@@H](CO)C(=O)N1CCC[C@@H]1C(=O)N[C@@H](CCCNC(=N)N)C(=O)N[C@@H](CCCNC(N)=O)C(=O)N[C@@H](CC1CCCCC1)C(=O)N[C@@H](CC1CCCCC1)C(=O)N[C@@H](CC(N)=O)C(=O)N[C@@H](CC(C)C)C(=O)NC(C)(C)C(=O)N[C@H](C(=O)N[C@@H](CCCNC(=N)N)C(=O)N[C@@H](CCC(N)=O)C(=O)N[C@@H](CCCNC(=N)N)C(=O)N[C@@H](CC1CCCCC1)C(N)=O)[C@@H](C)O
Regarding B4, the IC50 Ratio (vs PYY(3-36)) in assay [1] amounted to 5.5. Besides, the GBA EC50 Ratio (vs PYY(3-36)), [35S]GTPγS in assay [2] was determined as 1.7.

B5: Ac-[D-Aze(2)24, Cha27,28,36, Aib31]-PYY(23-36) (peptide)
peptide: Ac-S[dAze]RH[Cha][Cha]NL[Aib]TRQR[Cha]-NH2
SMILES: CC(=O)N[C@@H](CO)C(=O)N1CC[C@@H]1C(=O)N[C@@H](CCCNC(=N)N)C(=O)N[C@@H](Cc1c[nH]cn1)C(=O)N[C@@H](CC1CCCCC1)C(=O)N[C@@H](CC1CCCCC1)C(=O)N[C@@H](CC(N)=O)C(=O)N[C@@H](CC(C)C)C(=O)NC(C)(C)C(=O)N[C@H](C(=O)N[C@@H](CCCNC(=N)N)C(=O)N[C@@H](CCC(N)=O)C(=O)N[C@@H](CCCNC(=N)N)C(=O)N[C@@H](CC1CCCCC1)C(N)=O)[C@@H](C)O
Turning to B5, in assay [1], the IC50 Ratio (vs PYY(3-36)) was found to be 1.7. In addition, in assay [2], the GBA EC50 Ratio (vs PYY(3-36)), [35S]GTPγS came to 1.3.

B6: Ac-[D-Pro24, Cha27,28,36, Lys(Me2)30, Aib31]-PYY(23-36) (peptide)
peptide: Ac-S[dP]RH[Cha][Cha]N[Lys(Me2)][Aib]TRQR[Cha]-NH2
SMILES: CC(=O)N[C@@H](CO)C(=O)N1CCC[C@@H]1C(=O)N[C@@H](CCCNC(=N)N)C(=O)N[C@@H](Cc1c[nH]cn1)C(=O)N[C@@H](CC1CCCCC1)C(=O)N[C@@H](CC1CCCCC1)C(=O)N[C@@H](CC(N)=O)C(=O)N[C@@H](CCCCN(C)C)C(=O)NC(C)(C)C(=O)N[C@H](C(=O)N[C@@H](CCCNC(=N)N)C(=O)N[C@@H](CCC(N)=O)C(=O)N[C@@H](CCCNC(=N)N)C(=O)N[C@@H](CC1CCCCC1)C(N)=O)[C@@H](C)O
Turning to B6, the IC50 Ratio (vs PYY(3-36)) in assay [1] was 0.8. In assay [2], the GBA EC50 Ratio (vs PYY(3-36)), [35S]GTPγS is 0.7.

B7: Ac-[Glu23, D-Pro24, Pya(4)26, Cha27,36, Leu(Me)28, Lys30, Aib31]-PYY(23-36) (peptide)
peptide: Ac-E[dP]R[4Pal][Cha][tBuAla]NK[Aib]TRQR[Cha]-NH2
SMILES: CC(=O)N[C@@H](CCC(=O)O)C(=O)N1CCC[C@@H]1C(=O)N[C@@H](CCCNC(=N)N)C(=O)N[C@@H](Cc1ccncc1)C(=O)N[C@@H](CC1CCCCC1)C(=O)N[C@@H](CC(C)(C)C)C(=O)N[C@@H](CC(N)=O)C(=O)N[C@@H](CCCCN)C(=O)NC(C)(C)C(=O)N[C@H](C(=O)N[C@@H](CCCNC(=N)N)C(=O)N[C@@H](CCC(N)=O)C(=O)N[C@@H](CCCNC(=N)N)C(=O)N[C@@H](CC1CCCCC1)C(N)=O)[C@@H](C)O
In the case of B7, the IC50 Ratio (vs PYY(3-36)) in assay [1] came to 0.48. For the same molecule, the GBA EC50 Ratio (vs PYY(3-36)), [35S]GTPγS in assay [2] was found to be 0.86.

B8: Ac-[GABA24, Cha27,28,36, Aib31]-PYY(23-36) (peptide)
peptide: Ac-S[GABA]RH[Cha][Cha]NL[Aib]TRQR[Cha]-NH2
SMILES: CC(=O)N[C@@H](CO)C(=O)NCCCC(=O)N[C@@H](CCCNC(=N)N)C(=O)N[C@@H](Cc1c[nH]cn1)C(=O)N[C@@H](CC1CCCCC1)C(=O)N[C@@H](CC1CCCCC1)C(=O)N[C@@H](CC(N)=O)C(=O)N[C@@H](CC(C)C)C(=O)NC(C)(C)C(=O)N[C@H](C(=O)N[C@@H](CCCNC(=N)N)C(=O)N[C@@H](CCC(N)=O)C(=O)N[C@@H](CCCNC(=N)N)C(=O)N[C@@H](CC1CCCCC1)C(N)=O)[C@@H](C)O
For the molecule B8, in assay [1], the IC50 Ratio (vs PYY(3-36)) came to 5.8. Also, the GBA EC50 Ratio (vs PYY(3-36)), [35S]GTPγS in assay [2] came to 3.

B9: Isobutanoyl-[Glu23, D-Pro24, Pya(4)26, Cha27,36, Leu(Me)28, Lys30, Aib31]-PYY(23-36) (peptide)
peptide: Isobutyryl-E[dP]R[4Pal][Cha][tBuAla]NK[Aib]TRQR[Cha]-NH2
SMILES: CC(C)C(=O)N[C@@H](CCC(=O)O)C(=O)N1CCC[C@@H]1C(=O)N[C@@H](CCCNC(=N)N)C(=O)N[C@@H](Cc1ccncc1)C(=O)N[C@@H](CC1CCCCC1)C(=O)N[C@@H](CC(C)(C)C)C(=O)N[C@@H](CC(N)=O)C(=O)N[C@@H](CCCCN)C(=O)NC(C)(C)C(=O)N[C@H](C(=O)N[C@@H](CCCNC(=N)N)C(=O)N[C@@H](CCC(N)=O)C(=O)N[C@@H](CCCNC(=N)N)C(=O)N[C@@H](CC1CCCCC1)C(N)=O)[C@@H](C)O
On to B9, for which, in assay [1], the IC50 Ratio (vs PYY(3-36)) amounted to 0.43. Also, the GBA EC50 Ratio (vs PYY(3-36)), [35S]GTPγS in assay [2] turned out to be 0.88.

B10: Ac-[D-αMePro24, Cha27,28,36, Aib31]-PYY(23-36) (peptide)
peptide: Ac-S[d(αMeP)]RH[Cha][Cha]NL[Aib]TRQR[Cha]-NH2
SMILES: CC(=O)N[C@@H](CO)C(=O)N1CCC[C@]1(C)C(=O)N[C@@H](CCCNC(=N)N)C(=O)N[C@@H](Cc1c[nH]cn1)C(=O)N[C@@H](CC1CCCCC1)C(=O)N[C@@H](CC1CCCCC1)C(=O)N[C@@H](CC(N)=O)C(=O)N[C@@H](CC(C)C)C(=O)NC(C)(C)C(=O)N[C@H](C(=O)N[C@@H](CCCNC(=N)N)C(=O)N[C@@H](CCC(N)=O)C(=O)N[C@@H](CCCNC(=N)N)C(=O)N[C@@H](CC1CCCCC1)C(N)=O)[C@@H](C)O
Take B10: the IC50 Ratio (vs PYY(3-36)) in assay [1] worked out at 4.5. In assay [2], the GBA EC50 Ratio (vs PYY(3-36)), [35S]GTPγS is 2.6.
